# Measured values from PMC7661517.
# Biological target: hen egg white lysozyme (chicken) (UniProt P00698)
# Assay: SPR; lysozyme immobilised on a CM5 chip by amine coupling (200 RU); Affitins injected at 15.6-500 nM; 25 °C; HBSEP pH 7.4 (10 mM Hepes, 150 mM NaCl, 2 mM EDTA, 0.05% P20); association 2 min, dissociation 7 min; apparent
# Chain of UniProt P00698 (P00698 19-147): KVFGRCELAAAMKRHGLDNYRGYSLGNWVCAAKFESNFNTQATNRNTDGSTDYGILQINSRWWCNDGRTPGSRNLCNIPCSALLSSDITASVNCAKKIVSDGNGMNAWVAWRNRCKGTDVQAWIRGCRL
row,Substance,Kd [nM]
1,Affitin H4 mutant M2 (L31I-F32W) (designed binder),440
2,Affitin H4 mutant M3 (L54I-L55V-L58I) (designed binder),7.5
3,Affitin H4 mutant M1 (F6W-F7I) (designed binder),3.98
